Assays:
[1] = tested on: human Eph receptor (EphA1-A8, A10, EphB1-B4, B6); experiment: Selectivity ELISA for human Eph receptor family; format: binding; settings: antibody 10 μg/mL
Description: According to the method described in Example 1, a DNA sequence encoding the signal sequence and the extracellular region of each human Eph receptor (EphA1, EphA2, EphA3, EphA4, EphA5, EphA6, EphA7, EphA8, EphA10, EphB1, EphB2, EphB3, EphB4, and EphB6) was amplified by RT-PCR using tissue-derived total RNA and cloned into a pENTR1A vector (Invitrogen/Life Technologies) having a DNA sequence encoding a human IgG1 Fc region and histidine tag. Next, the DNA sequence encoding the signal sequence and the extracellular region of each human Eph receptor, Fc, and histidine tag was transferred to a pcDNA3.1_rfcB vector through LR reaction using Gateway System (Invitrogen/Life Technologies) to construct a vector for the expression of a protein of the extracellular region of each human Eph receptor fused with the human IgG1 Fc region and the His tag (referred to as “Eph receptor extracellular region-Fc-His protein”) (this vector is referred to as “Eph receptor extracellular region-Fc-His protein expression vector”). […]
Antibody A was evaluated for its binding activity against each human Eph receptor according to the following steps.
(§1) Each well of a 96-well plate (Nunc) was coated with a donkey anti-human IgG antibody (Jackson ImmunoResearch Laboratories). […] The absorbance at 450 nm was read using a microplate reader (PerkinElmer).

[2] = tested on: mouse Eph receptor (EphA1-A8, A10, EphB1-B4, B6); experiment: Selectivity ELISA for mouse Eph receptor family; format: binding; settings: antibody 10 μg/mL
Description: According to the method described in Example 1, a DNA sequence encoding the signal sequence and the extracellular region of each mouse Eph receptor (EphA1, EphA3, EphA4, EphA5, EphA6, EphA7, EphA8, EphA10, EphB1, EphB2, EphB3, EphB4, and EphB6) was amplified by RT-PCR using tissue-derived total RNA and cloned into a pENTR1A vector (Invitrogen/Life Technologies) having a DNA sequence encoding a human IgG1 Fc region and histidine tag. Next, the DNA sequence encoding the signal sequence and the extracellular region of each mouse Eph receptor (EphA1, EphA3, EphA4, EphA5, EphA6, EphA7, EphA8, EphA10, EphB1, EphB2, EphB3, EphB4, and EphB6), Fc, and histidine tag was transferred to a pcDNA3.1_rfcB vector through LR reaction using Gateway System (Invitrogen/Life Technologies) to construct each mouse Eph receptor extracellular region-Fc-His protein expression vector. […]
Antibody A was evaluated for its binding activity against each mouse Eph receptor according to the following steps.
as §1

B1: antibody A: mouse anti-EphA4 monoclonal antibody, IgG1/κ; heavy chain variable region SEQ ID NO: 11, light chain variable region SEQ ID NO: 13 (antibody, listed as Mus musculus, V domains shown)
VH: QIQLVQSGPELKKPGETVKISCKASGYTFTDYSMHWVKQAPGKGLKWMGWINTETGEPTYADDFKGRFAFSLETSASTAYLQINNLKNEDTATYFCARIPLYYYGSRYWYFDVWGAGTTVTVSS
VL: DIQMTQSPASLSVSVGETVTITCRASENIYRNLAWYQQKQGKSPQLLVYAATNLADGVPSRFSGSGSGTQYSLKINSLQSEDFGSYYCQHFWGTPWTFGGGTKLEIK
[1]
  binding specificity among human Eph receptor family (in words): specifically had reaction activity only with human EphA4
[2]
  binding specificity among mouse Eph receptor family (in words): specifically had reaction activity only with mouse EphA4
